Data: US20100291070A1

Molecular target: PA1698 protein on Pseudomonas aeruginosa PA103 strain cells (Pseudomonas aeruginosa (PA103 strain))
Assay: whole cell ELISA on immobilised P. aeruginosa PA103, 50 ug/well

absorbance at 450 nm: 0.084
Substance: negative control IgG fraction purified from control rat sera obtained by administering only adjuvant (antibody)
